In patent US20250325664A1, “COMBINATION THERAPY WITH AN ANTI-COLONY STIMULATING FACTOR 1 RECEPTOR ANTIBODY AND A JAK INHIBITOR” (Incyte Corporation, priority 2024, published 2025):

Experiments:
subjects with cGVHD [1] = experiment: Clinical study of axatilimab given as a single agent to subjects with cGVHD after at least two prior lines of systemic therapy
[2] = Population PK/PD model of axatilimab: post-hoc exposures and pediatric simulation; parameters: species or system human; details: five participants aged 12 to 17 years in cGVHD studies vs adults of same dose groups
Source text: In addition, the developed population PK/PD model for axatilimab was extrapolated to simulate PK in pediatric patients aged 12 to 17 years, using standard allometric exponents of 0.75 for clearance-related parameters and 1.0 for volume of distribution-related parameters.

subjects with cGVHD [3] = details: human, in vivo

axatilimab: humanized IgG4 monoclonal antibody that binds CSF-1R; heavy chain SEQ ID NO:2, light chain SEQ ID NO:3
participants with treatment-emergent adverse events (TEAEs) (subjects with cGVHD [1]; 0.3 mg/kg Q2W): 6%
reported CMV infections (subjects with cGVHD [1]; 0.3 mg/kg Q2W): no CMV infections were reported
participants with reduction in modified Lee Symptom Scale (mLSS) score ≤7 points (subjects with cGVHD [1]; 0.3 mg/kg Q2W cohort, first 6 cycles): 55%
frequency of treatment-related AEs, any grade and ≥Grade 3 (subjects with cGVHD [1]; 0.3 mg/kg Q2W vs 1 mg/kg Q2W vs 3 mg/kg Q4W): showed dose dependency, with lowest incidence at 0.3 mg/kg Q2W
objective response rate (ORR), primary endpoint (subjects with cGVHD [1]; 0.3 mg/kg Q2W, first 6 cycles): 73.8%
participants with treatment-emergent adverse events (TEAEs) (subjects with cGVHD [1]; 1 mg/kg Q2W): 22%
objective response rate (ORR), primary endpoint (subjects with cGVHD [1]; 1 mg/kg Q2W, first 6 cycles): 66.7%
participants with treatment-emergent adverse events (TEAEs) (subjects with cGVHD [1]; 3 mg/kg Q4W): 18%
objective response rate (ORR), primary endpoint (subjects with cGVHD [1]; 3 mg/kg Q4W, first 6 cycles): 50%
most common TEAEs (subjects with cGVHD [1]; all dose cohorts): elevated aspartate aminotransferase/alanine aminotransferase (AST/ALT), creatine phosphokinase (CPK), lipase, amylase, and lactate dehydrogenase levels as well as periorbital edema
reported CMV infections (number) (subjects with cGVHD [1]; higher dose cohorts): 2
post-hoc PK exposures in participants aged 12 to 17 years [2]: comparable to those observed in adult participants from the same dose groups
severity of infections (subjects with cGVHD [3]): Most infections were mild
